From the supplement of paper PMC12764529
± gives the half width of the 95% confidence interval.

How the values were obtained:
[1] = folding stability dG unfold (combined trypsin and chymotrypsin); higher = more stable
How it was run: (§1)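 Unfolding free energy was derived, per protease or combined, by relating Bayesian-fitted K50 values from sequencing counts to a sequence-predicted unfolded-state K50 and a shared folded-state K50. The underlying digests exposed cysteine-free mini-proteins under 80 residues, in a PA-tagged cDNA display construct, to trypsin and chymotrypsin at 11 threefold-diluted concentrations and to a no-protease condition. A filter kept only designs with AlphaFold2 dimer inter-PAE above 15.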

[2] = folding stability dG unfold from chymotrypsin proteolysis; higher = more stable
How it was run: as §1

[3] = folding stability dG unfold from trypsin proteolysis; higher = more stable
How it was run: as §1

Sequence	folding stability dG unfold [1]	folding stability dG unfold [2]	folding stability dG unfold [3]
SAGGSAGGSAGGLVLRGPNDSLLFVLYNPDTGLAVFYNPATNQLLVVNLPLPKPKPSELLSAGGSAGGSAGG [r7_383_TrMRF]	2.68 ± 0.15 kcal/mol	2.81 ± 0.049 kcal/mol	2.38 ± 0.089 kcal/mol
SAGGSAGGSAGGLVLTSTSFTSSNTMVVTTTTLTTNADGSLSTTSTTTTTPVPPPKPGLPSAGGSAGGSAGG [r11_728_JUSTAS]	0.443 ± 0.077 kcal/mol	0.509 ± 0.092 kcal/mol	0.161 ± 0.042 kcal/mol
SAGGSAGGSAGGMAASVSPSVSYDPNTPVTNTKYTITTDGGVTPTTVVTPVVTPPPSPALSAGGSAGGSAGG [r7_413_JUSTAS]	0.198 ± 0.17 kcal/mol	0.149 ± 0.11 kcal/mol	-0.148 ± 0.16 kcal/mol
SAGGSAGGSAGGMEIEKNENGELIIKFKSKEEAEKAIEELKKKGYKVELNEDGYLIIKPSAGGSAGGSAGGS [r10_1027_TrROS_Hall]	3.96 ± 0.13 kcal/mol	4.07 ± 0.14 kcal/mol	3.34 ± 0.16 kcal/mol
SAGGSAGGSAGGMEIIEKEETLDEETLKKLEEEGVPKSEATVKVTEVIYKEEYPEEGLKSAGGSAGGSAGGS [r10_1149_JUSTAS]	-0.137 ± 0.34 kcal/mol	-0.692 ± 0.28 kcal/mol	0.359 ± 0.072 kcal/mol
SAGGSAGGSAGGMEIREVEVTFVPPDGTTTTRKVLATSEEEAKAILEEELPPDWEIILRSAGGSAGGSAGGS [r10_145_JUSTAS]	0.55 ± 0.082 kcal/mol	0.831 ± 0.034 kcal/mol	-0.122 ± 0.11 kcal/mol
SAGGSAGGSAGGMEKVTEVKPVATLPNGTVVTETLVTYTAPNGPEIGEEVVLTEDPVPKSAGGSAGGSAGGS [r10_941_JUSTAS]	-0.455 ± 0.15 kcal/mol	-0.408 ± 0.2 kcal/mol	-0.942 ± 0.22 kcal/mol
SAGGSAGGSAGGMELELTFATPEQAVEYAERFERLGYEVEVEYYPETGLVRVRVRLYPEESAGGSAGGSAGG [r7_623_TrMRF]	3.76 ± 0.074 kcal/mol	3.6 ± 0.072 kcal/mol	3.97 ± 0.11 kcal/mol
SAGGSAGGSAGGMEVKTVEDPKGLTVEVSPPVGTATTVYGDETVTHTLSPSATVALEPASAGGSAGGSAGGS [r10_637_JUSTAS]	0.31 ± 0.1 kcal/mol	0.435 ± 0.033 kcal/mol	-0.0233 ± 0.042 kcal/mol
SAGGSAGGSAGGMEYSISNVTTETFPEGNKTVTVETYTFDDGGTITVTKENGKVLEVNPKSAGGSAGGSAGG [r7_552_JUSTAS]	0.135 ± 0.11 kcal/mol	0.586 ± 0.062 kcal/mol	-1.57 ± 0.56 kcal/mol
SAGGSAGGSAGGMFVRIEVDGKTILLEADSLEEALAAIRALLPPGEKVKVELVSEEELKSAGGSAGGSAGGS [r10_1167_TrROS_Hall]	2.85 ± 0.047 kcal/mol	3.04 ± 0.068 kcal/mol	2.44 ± 0.084 kcal/mol
SAGGSAGGSAGGMIKTEDGYEVEIKIEVEEIPLPEGMSEEEKEKLKKIRIIRIEIKVTKKSAGGSAGGSAGG [r7_324_TrROS_Hall]	2.26 ± 0.36 kcal/mol	2.5 ± 0.33 kcal/mol	1.67 ± 0.12 kcal/mol
SAGGSAGGSAGGMILVENPSLNESTVLSKDTPISSFKVPSDNSKVRIIIIYPSNSFVVISSAGGSAGGSAGG [r7_763_JUSTAS]	1.71 ± 0.088 kcal/mol	1.55 ± 0.14 kcal/mol	1.85 ± 0.073 kcal/mol
SAGGSAGGSAGGMIRIENPGNGEPRPIKPNDLEDILDNFPGPMRIETGGGEKEVPAKDISAGGSAGGSAGGS [r10_839_TrROS]	-0.0618 ± 0.21 kcal/mol	0.052 ± 0.079 kcal/mol	-0.528 ± 0.13 kcal/mol
SAGGSAGGSAGGMIRIVNEETGEEIEISPEELEELLAKSDKPVRIEVDGKVIPLDAKDLSAGGSAGGSAGGS [r10_839_TrROS_Hall]	0.352 ± 0.091 kcal/mol	-0.268 ± 0.054 kcal/mol	0.85 ± 0.03 kcal/mol
SAGGSAGGSAGGMITVEYDPSRPVYTVTVTDPTTGKTTVIDVPRDDLEQALALAEALLKSAGGSAGGSAGGS [r10_1117_JUSTAS]	1.67 ± 0.064 kcal/mol	1.95 ± 0.03 kcal/mol	0.647 ± 0.046 kcal/mol
SAGGSAGGSAGGMKITLTVPSEEEIEALTPPDAKITEIKKIGKDPVKGLPYYEVVLDPSSAGGSAGGSAGGS [r10_256_JUSTAS]	0.0912 ± 0.14 kcal/mol	0.411 ± 0.033 kcal/mol	-1.42 ± 0.44 kcal/mol
SAGGSAGGSAGGMKKGQKFKPVKKVKLRFKVKVKVKVGGKEYEFEAEVELEVEFYVLEDSAGGSAGGSAGGS [r10_758_TrROS_Hall]	3.68 ± 0.25 kcal/mol	4.41 ± 0.17 kcal/mol	2.55 ± 0.2 kcal/mol
SAGGSAGGSAGGMKKPILLPGETEEDVLERIKKLPKDYKVTIEKLDDDKLLVTITSPKLGSAGGSAGGSAGG [r7_662_JUSTAS]	0.58 ± 0.33 kcal/mol	-0.5 ± 0.51 kcal/mol	0.877 ± 0.14 kcal/mol
SAGGSAGGSAGGMKLDVTIVGDGKVTTLPADSLEDVEETLKKLGLTLKSVDPATGTVTVASAGGSAGGSAGG [r7_726_JUSTAS]	0.305 ± 0.19 kcal/mol	-0.0786 ± 0.54 kcal/mol	0.718 ± 0.051 kcal/mol
SAGGSAGGSAGGMKTITIKVPSSVSFEEAKKKAEALFPKSIPVKVEYDPKTGTFTVTVESAGGSAGGSAGGS [r10_163_JUSTAS]	2.17 ± 0.046 kcal/mol	2.349 ± 0.015 kcal/mol	1.77 ± 0.035 kcal/mol
